Source: paper PMC5513132, “Two bifunctional enzymes from the marine protist Thraustochytrium roseum: biochemical characterization of wax ester synthase/acyl-CoA:diacylglycerol acyltransferase activity catalyzing wax ester and triacylglycerol synthesis” (Biotechnology for Biofuels, 2017)

Assays:
Assay in all cases: purified protein
Type in all cases: biochemical, Thraustochytrium roseum
Details in all cases: 100 μM hexadecanol, pH 7.4, 37 °C, acyl-CoA varied 15-90 μM
[1] = test system: CCCCCCCCCCCCCCCC(=O)SCCNC(=O)CCNC(=O)[C@H](O)C(C)(C)COP(=O)(O)OP(=O)(O)OC[C@H]1O[C@@H](n2cnc3c(N)ncnc32)[C@H](O)[C@@H]1OP(=O)(O)O
[2] = test system: CCCCCCCCCCCC(=O)SCCNC(=O)CCNC(=O)[C@H](O)C(C)(C)COP(=O)(O)OP(=O)(O)OC[C@H]1O[C@@H](n2cnc3c(N)ncnc32)[C@H](O)[C@@H]1OP(=O)(O)O
[3] = test system: CCCCCCCCCCCCCCCCCC(=O)SCCNC(=O)CCNC(=O)[C@H](O)C(C)(C)COP(=O)(O)OP(=O)(O)OC[C@H]1O[C@@H](n2cnc3c(N)ncnc32)[C@H](O)[C@@H]1OP(=O)(O)O
[4] = test system: CCCCCCCC(=O)SCCNC(=O)CCNC(=O)[C@H](O)C(C)(C)COP(=O)(O)OP(=O)(O)OC[C@H]1O[C@@H](n2cnc3c(N)ncnc32)[C@H](O)[C@@H]1OP(=O)(O)O
[5] = test system: CCCCCCCCCC(=O)SCCNC(=O)CCNC(=O)[C@H](O)C(C)(C)COP(=O)(O)OP(=O)(O)OC[C@H]1O[C@@H](n2cnc3c(N)ncnc32)[C@H](O)[C@@H]1OP(=O)(O)O
[6] = test system: CCCCCCCCCCCCCC(=O)SCCNC(=O)CCNC(=O)[C@H](O)C(C)(C)COP(=O)(O)OP(=O)(O)OC[C@H]1O[C@@H](n2cnc3c(N)ncnc32)[C@H](O)[C@@H]1OP(=O)(O)O
[7] = test system: CCCCC/C=C\C/C=C\C/C=C\C/C=C\CCCC(=O)SCCNC(=O)CCNC(=O)[C@H](O)C(C)(C)COP(=O)(O)OP(=O)(O)OC[C@H]1O[C@@H](n2cnc3c(N)ncnc32)[C@H](O)[C@@H]1OP(=O)(O)O
[8] = test system: CC/C=C\C/C=C\C/C=C\C/C=C\C/C=C\CCCC(=O)SCCNC(=O)CCNC(=O)[C@H](O)C(C)(C)COP(=O)(O)OP(=O)(O)OC[C@H]1O[C@@H](n2cnc3c(N)ncnc32)[C@H](O)[C@@H]1OP(=O)(O)O
[9] = test system: CCCCC/C=C\C/C=C\C/C=C\CCCCC(=O)SCCNC(=O)CCNC(=O)[C@H](O)C(C)(C)COP(=O)(O)OP(=O)(O)OC[C@H]1O[C@@H](n2cnc3c(N)ncnc32)[C@H](O)[C@@H]1OP(=O)(O)O
purified protein [10] = substrate: CCCCCCCCCCCCCC(=O)SCCNC(=O)CCNC(=O)[C@H](O)C(C)(C)COP(=O)(O)OP(=O)(O)OC[C@H]1O[C@@H](n2cnc3c(N)ncnc32)[C@H](O)[C@@H]1OP(=O)(O)O; remark: listed apart in the source
purified protein [11] = substrate: CCCCCCCCCC(=O)SCCNC(=O)CCNC(=O)[C@H](O)C(C)(C)COP(=O)(O)OP(=O)(O)OC[C@H]1O[C@@H](n2cnc3c(N)ncnc32)[C@H](O)[C@@H]1OP(=O)(O)O; remark: listed apart in the source
purified protein [12] = substrate: CCCCC/C=C\C/C=C\C/C=C\CCCCC(=O)SCCNC(=O)CCNC(=O)[C@H](O)C(C)(C)COP(=O)(O)OP(=O)(O)OC[C@H]1O[C@@H](n2cnc3c(N)ncnc32)[C@H](O)[C@@H]1OP(=O)(O)O; remark: listed apart in the source
purified protein [13] = substrate: CCCCCCCCCCCCCCCC(=O)SCCNC(=O)CCNC(=O)[C@H](O)C(C)(C)COP(=O)(O)OP(=O)(O)OC[C@H]1O[C@@H](n2cnc3c(N)ncnc32)[C@H](O)[C@@H]1OP(=O)(O)O; remark: listed apart in the source
purified protein [14] = substrate: CC/C=C\C/C=C\C/C=C\C/C=C\C/C=C\CCCC(=O)SCCNC(=O)CCNC(=O)[C@H](O)C(C)(C)COP(=O)(O)OP(=O)(O)OC[C@H]1O[C@@H](n2cnc3c(N)ncnc32)[C@H](O)[C@@H]1OP(=O)(O)O; remark: listed apart in the source
purified protein [15] = substrate: CCCCC/C=C\C/C=C\C/C=C\C/C=C\CCCC(=O)SCCNC(=O)CCNC(=O)[C@H](O)C(C)(C)COP(=O)(O)OP(=O)(O)OC[C@H]1O[C@@H](n2cnc3c(N)ncnc32)[C@H](O)[C@@H]1OP(=O)(O)O; remark: listed apart in the source
purified protein [16] = substrate: CCCCCCCC(=O)SCCNC(=O)CCNC(=O)[C@H](O)C(C)(C)COP(=O)(O)OP(=O)(O)OC[C@H]1O[C@@H](n2cnc3c(N)ncnc32)[C@H](O)[C@@H]1OP(=O)(O)O; remark: listed apart in the source
purified protein [17] = substrate: CCCCCCCCCCCCCCCCCC(=O)SCCNC(=O)CCNC(=O)[C@H](O)C(C)(C)COP(=O)(O)OP(=O)(O)OC[C@H]1O[C@@H](n2cnc3c(N)ncnc32)[C@H](O)[C@@H]1OP(=O)(O)O; remark: listed apart in the source
purified protein [18] = substrate: CCCCCCCCCCCC(=O)SCCNC(=O)CCNC(=O)[C@H](O)C(C)(C)COP(=O)(O)OP(=O)(O)OC[C@H]1O[C@@H](n2cnc3c(N)ncnc32)[C@H](O)[C@@H]1OP(=O)(O)O; remark: listed apart in the source

TrWSD5 (ΔTmTrWSD5) (Thraustochytrium roseum; DEL472-494)
Km [1]: 24.77 µM | Vmax [1]: 0.213 µmol/min/mg | kcat [1]: 0.341 s⁻¹ | kcat/Km [1]: 13700 M⁻¹ s⁻¹ | Km [2]: 25.93 µM | Vmax [2]: 0.152 µmol/min/mg | kcat [2]: 0.243 s⁻¹ | kcat/Km [2]: 9370 M⁻¹ s⁻¹ | Km [3]: 75.87 µM | Vmax [3]: 0.379 µmol/min/mg | kcat [3]: 0.604 s⁻¹ | kcat/Km [3]: 7960 M⁻¹ s⁻¹ | Km [4]: 12.25 µM | Vmax [4]: 0.0639 µmol/min/mg | kcat [4]: 0.102 s⁻¹ | kcat/Km [4]: 8330 M⁻¹ s⁻¹ | Km [5]: 0.96 µM | Vmax [5]: 0.0589 µmol/min/mg | kcat [5]: 0.0941 s⁻¹ | kcat/Km [5]: 98300 M⁻¹ s⁻¹ | Km [6]: 18.5 µM | Vmax [6]: 0.207 µmol/min/mg | kcat [6]: 0.331 s⁻¹ | kcat/Km [6]: 17900 M⁻¹ s⁻¹ | Km [7]: 226.35 µM | Vmax [7]: 0.103 µmol/min/mg | kcat [7]: 0.165 s⁻¹ | kcat/Km [7]: 729 M⁻¹ s⁻¹ | Km [8]: 106.2 µM | Vmax [8]: 0.312 µmol/min/mg | kcat [8]: 0.498 s⁻¹ | kcat/Km [8]: 4690 M⁻¹ s⁻¹ | Km [9]: 284.68 µM | Vmax [9]: 0.152 µmol/min/mg | kcat [9]: 0.242 s⁻¹ | kcat/Km [9]: 850 M⁻¹ s⁻¹

B1: TrWSD4 (Thraustochytrium roseum) (protein)
chain: MAENNNHLDEAVVDEAQREQDVEVEEEVEEEEEEEEEEEEEAVVEDVKATLADGPAEKSPKVAPKQTKRKGRRVKHRASVTTRLIGNLQREAQSKSSWVVGLLFFKSDPGFEAVRETVGKRLLQIPRFRSKLTARRFPAKMEFVELDDDEIDMDYHFRQAFQDRTATLDEVDEFVGSMFDGFNHPMDKPLWQITYIPKLEDGRAVLITNISHIVGDGIAQVEVLMRLLDPVKESKGEKVQKPRTGANKKRKPPALGPFTKAKVFMGGVWEGFFSVISSPDKKNTLRLKDVNKPSPTKRCTFSETIPLDKVKELKNMYEGATLNDVLVTLLTLTLRAYFREVGDKGALRNKVRAQFPINIRSKSEGPFRNDNPRNKFTYGFMPFHVSGNRDASATFWRTKRTLDKIKSSPSPVVQHQVGKVISNIMPLKALNAQLLNLAAKATAQVSNVPGPQDAVTVAGTEVDDMRFLLYSPLSFYVGLLTYNGNLSASFCIDSALADPRLISKHWLPEFEKFYAHAKEAAGESGLIRKPRSCLDCL
Km (purified protein [10]): 3.94 µM | Vmax (purified protein [10]): 0.0202 µmol/min/mg | kcat (purified protein [10]): 0.0254 s⁻¹ | kcat/Km (purified protein [10]): 6440 M⁻¹ s⁻¹ | Km (purified protein [11]): 17.6 µM | Vmax (purified protein [11]): 0.0122 µmol/min/mg | kcat (purified protein [11]): 0.0154 s⁻¹ | kcat/Km (purified protein [11]): 873 M⁻¹ s⁻¹ | Km (purified protein [12]): 280.86 µM | Vmax (purified protein [12]): 0.0188 µmol/min/mg | kcat (purified protein [12]): 0.0236 s⁻¹ | kcat/Km (purified protein [12]): 84 M⁻¹ s⁻¹ | Km (purified protein [13]): 3.08 µM | Vmax (purified protein [13]): 0.0255 µmol/min/mg | kcat (purified protein [13]): 0.032 s⁻¹ | kcat/Km (purified protein [13]): 10400 M⁻¹ s⁻¹ | Km (purified protein [14]): 131.16 µM | Vmax (purified protein [14]): 0.00905 µmol/min/mg | kcat (purified protein [14]): 0.0114 s⁻¹ | kcat/Km (purified protein [14]): 86.6 M⁻¹ s⁻¹ | Km (purified protein [15]): 297.17 µM | Vmax (purified protein [15]): 0.0118 µmol/min/mg | kcat (purified protein [15]): 0.0148 s⁻¹ | kcat/Km (purified protein [15]): 49.9 M⁻¹ s⁻¹ | Km (purified protein [16]): 29.93 µM | Vmax (purified protein [16]): 0.0148 µmol/min/mg | kcat (purified protein [16]): 0.0185 s⁻¹ | kcat/Km (purified protein [16]): 619 M⁻¹ s⁻¹ | Km (purified protein [17]): 19.15 µM | Vmax (purified protein [17]): 0.0302 µmol/min/mg | kcat (purified protein [17]): 0.0379 s⁻¹ | kcat/Km (purified protein [17]): 1980 M⁻¹ s⁻¹ | Km (purified protein [18]): 0.14 µM | Vmax (purified protein [18]): 0.0161 µmol/min/mg | kcat (purified protein [18]): 0.0202 s⁻¹ | kcat/Km (purified protein [18]): 146000 M⁻¹ s⁻¹
